Target: Human pyruvate kinase isoform M2 (PKM2), wild type (human) (UniProt P14618)
Assay: SEC

Human pyruvate kinase isoform M2 (PKM2), wild type, P14618 1-531 (enzyme; other documents disagree on this pair), sequence (P14618 whole entry, canonical isoform): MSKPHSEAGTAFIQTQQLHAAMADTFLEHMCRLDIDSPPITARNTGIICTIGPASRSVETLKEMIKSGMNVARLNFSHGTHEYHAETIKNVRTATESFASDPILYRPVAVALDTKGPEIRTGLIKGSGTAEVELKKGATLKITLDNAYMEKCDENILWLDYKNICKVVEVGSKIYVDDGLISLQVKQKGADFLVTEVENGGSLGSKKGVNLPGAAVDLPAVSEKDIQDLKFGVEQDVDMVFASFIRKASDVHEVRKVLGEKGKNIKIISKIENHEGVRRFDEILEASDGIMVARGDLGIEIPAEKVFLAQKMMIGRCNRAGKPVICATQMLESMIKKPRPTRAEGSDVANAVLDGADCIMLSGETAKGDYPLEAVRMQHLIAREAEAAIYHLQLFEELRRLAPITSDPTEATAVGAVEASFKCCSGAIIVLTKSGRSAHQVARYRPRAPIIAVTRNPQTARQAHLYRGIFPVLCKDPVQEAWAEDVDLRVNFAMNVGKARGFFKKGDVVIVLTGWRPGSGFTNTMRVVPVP

stoichiometry N: 2
Substance: Human pyruvate kinase isoform M2 (PKM2), wild type, P14618 1-531 (enzyme; other documents disagree on this pair)

— PMC4995138
